One molecule from patent US6060588, “Bap-1 proteins” (COR Therapeutics, Inc., dated 2000) can be followed below.

In the assay the target is GAL4 DNA binding protein only (pGBT9) (Saccharomyces cerevisiae (strain ATCC …, UniProt P04386)). In words: yeast two-hybrid, mating with control baits.

B1: clone 126-2 (partial cDNA of the mouse homologue of Bap-1, fused to the VP16 activation domain) (other)
chain: SGAEDNGDSSHCSNASTHSNQEAGPSNKRTKTSDDSGLDLDNNNAGVAIDPVMDGASEIELVFRPHPTLMEKDDSAQTRYIKTSGNATVDHLSKYLAVRLALEELRSKV
Consider B1, for which the binding result is “no binding”.
